Assay results as given in publication PMC3498133 (2012).
“And” between values parts separate entries of the source, which are not always exact repeats. Equal entries are not always repeated.

Molecular target: SpcU (Pseudomonas aeruginosa, UniProt O66100 1-137)
Experiment: ITC

B1: ExoU (natural protein)
chain: MHIQSLGATASSLNQEPVETPSQAAHKSASLRQEPSGQGLGVALKSTPGILSGKLPESVSDVRFSSPQGQGESRTLTDSAGPRQITLRQFENGVTELQLSRPPLTSLVLSGGGAKGAAYPGAMLALEEKGMLDGIRSMSGSSAGGITAALLASGMSPAAFKTLSDKMDLISLLDSSNKKLKLFQHISSEIGASLKKGLGNKIGGFSELLLNVLPRIDSRAEPLERLLRDETRKAVLGQIATHPEVARQPTVAAIASRLQSGSGVTFGDLDRLSAYIPQIKTLNITGTAMFEGRPQLVVFNASHTPDLEVAQAAHISGSFPGVFQKVSLSDQPYQAGVEWTEFQDGGVMINVPVPEMIDKNFDSGPLRRNDNLILEFEGEAGEVAPDRGTRGGALKGWVVGVPALQAREMLQLEGLEELREQTVVVPLKSERGDFSGMLGGTLNFTMPDEIKAHLQERLQERVGEHLEKRLQASERHTFASLDEALLALDDSMLTSVAQQNPEITDGAVAFRQKARDAFTELTVAIVSANGLAGRLKLDEAMRSALQRLDALADTPERLAWLAAELNHADNVDHQQLLDAMRGQTVQSPVLAAALAEAQRRKVAVIAENIRKEVIFPSLYRPGQPDSNVALLRRAEEQLRHATSPAEINQALNDIVDNYSARGFLRFGKPLSSTTVEMAKAWRNKEFT
For B1, the Ka was 3.08e+07 M⁻¹ and 1.77e+07 M⁻¹.
